Measured values reported in FireProtDB (doi:10.1002/pro.381).

B1: Guanyl-specific ribonuclease Sa, P05798 (parent)
chain: DVSGTVCLSALPPEATDTLNLIASDGPFPYSQDGVVFQNRESVLPTQSYGYYHEYTVITPGARTRGTRRIITGEATQEDYYTGDHYATFSLIDQTC

Variants of: B1
Conditions: Kitasatospora aureofaciens, pH 7, CD, MOPS 30 mM, structure 1RGG, whole UniProt chain shown

Variant | ddG of mutation (higher = less stable) (25 °C, GdnHCl) | denaturant m value (25 °C, GdnHCl) | denaturant midpoint (higher = more stable) (25 °C, GdnHCl) | unfolding free energy (25 °C, GdnHCl) | ddG of mutation (higher = less stable) (60 °C, Thermal) | heat capacity change of unfolding (60 °C, Thermal) | Tm (Thermal) | change of melting temperature, mutant - wild type (higher = more stable) (Thermal) | heat capacity change of unfolding (Thermal) | unfolding enthalpy (van 't Hoff) (Thermal) | ddG of mutation (higher = less stable) (25 °C, Urea) | denaturant m value (25 °C, Urea) | denaturant midpoint (higher = more stable) (25 °C, Urea) | unfolding free energy (25 °C, Urea)
DVSGTVCLSALPPEATDTLNLIASKGPFPYPQDGVVFQNREGVLPTQPYGYYHEYTVITPGARTRGTRRIITGKAPGEFYYTGDHYATFSLDDQTC [D25K E74K S31P S42G S48P T76P Q77G D79F I92D] | 2.2 kcal/mol | 2.73 kcal/mol/M | 2.01 M | 5.5 kcal/mol | 7.1 kcal/mol | 1.41 kcal/mol/K | 50.2 °C | -26.9 °C | 1.41 kcal/mol/K | 84 kcal/mol | – | – | – | –
DVSGTVCLSALPPEATDTLNLIASKGPFPYPQDGVVFQNREGVLPTQPYGYYHEYTVITPGARTRGTRRIITGKAPGEFYYTGDHYATFSLADQTC [D25K E74K S31P S42G S48P T76P Q77G D79F I92A] | -1.9 kcal/mol | 2.78 kcal/mol/M | 3.22 M | 9.2 kcal/mol | 3.2 kcal/mol | 1.33 kcal/mol/K | 63.9 °C | -13.3 °C | 1.33 kcal/mol/K | 102 kcal/mol | – | – | – | –
DVSGTVCLSALPPEATDTLNLIASKGPFPYPQDGVVFQNREGVLPTQPYGYYHEYTVITPGARTRGTRRIITGKAPGEAYYTGDHYATFSLIDQTC [D25K E74K S31P S42G S48P T76P Q77G D79A] | -4.9 kcal/mol | 2.4 kcal/mol/M | 5.05 M | 12.1 kcal/mol | -2.2 kcal/mol | 1.15 kcal/mol/K | 75.3 °C | 8.7 °C | 1.15 kcal/mol/K | 102 kcal/mol | – | – | – | –
DVSGTVCLSALPPEATDTLNLIASKGPFPYPQDGVVFQNREGVLPTQPYGYYHEYTVITPGARTRGTRRIITGKAPGEFYYTGDHYATFSLIDQTC [D25K E74K S31P S42G S48P T76P Q77G D79F] | -6.3 kcal/mol | 2.51 kcal/mol/M | 5.4 M | 13.6 kcal/mol | -7.7 kcal/mol | 1.07 kcal/mol/K | – | – | – | – | – | – | – | –
DVSGTVCLSALPPEATDTLNLIASKGPFPYPQDGVVFQNREGVLPTQPYGYYHEYTVITPGARTRGTRRDITGKAPGEFYYTGDHYATFSLIDQTC [D25K E74K S31P S42G S48P T76P Q77G D79F I70D] | – | – | – | – | 9.5 kcal/mol | 1.08 kcal/mol/K | 41.5 °C | -35.6 °C | 1.08 kcal/mol/K | 78 kcal/mol | – | – | – | –
DVSGTVCLSALPPEATDTLNLIASKGPFPYSQDGVVFQNRESVLPTQSYGYYHEYTVITPGARTRGTRRIITGKATQEDYYTGDHYATFSLIDQTC [D25K E74K] | 0.2 kcal/mol | 2.61 kcal/mol/M | 2.7 M | 7.1 kcal/mol | -0.8 kcal/mol | – | 51.5 °C | 2.2 °C | – | 92 kcal/mol | -0.8 kcal/mol | 1.02 kcal/mol/M | 6.51 M | 6.6 kcal/mol
DVSGTVCLSALPPEATDTLNLIASKGPFPYPQDGVVFQNREGVLPTQPYGYYHEYTVITPGARTRGTRRIITGKAPGEDYYTGDHYATFSLIDQTC [D25K E74K S31P S42G S48P T76P Q77G] | -3.9 kcal/mol | 2.52 kcal/mol/M | 4.44 M | 11.2 kcal/mol | -5.3 kcal/mol | 1.68 kcal/mol/K | 66.6 °C | 17.3 °C | 1.68 kcal/mol/K | 105 kcal/mol | – | – | – | –
DVSGTVCLSALPPEATDTLNLIASKGPFPYPQDGVVFQNREGVLPTQPYGYYHEYTVITPGARTRGTRRIITGKAPGEFAYTGDHYATFSLIDQTC [D25K E74K S31P S42G S48P T76P Q77G D79F Y80A] | -0.1 kcal/mol | 2.69 kcal/mol/M | 2.74 M | 7.4 kcal/mol | 4.8 kcal/mol | 1.29 kcal/mol/K | 58 °C | -19.2 °C | 1.29 kcal/mol/K | 87 kcal/mol | – | – | – | –
DVSGTVCLSALPPEATDTLNLIASKGPFPYPQDGVVFQNREGVLPTQPYGYYHEYTVITPGARTRGTRRIITGKAPGEDYYTGDHYATFSLDDQTC [D25K E74K S31P S42G S48P T76P Q77G I92D] | 5.1 kcal/mol | 2.67 kcal/mol/M | 0.83 M | 2.2 kcal/mol | 9.6 kcal/mol | 1.41 kcal/mol/K | 34 °C | -32.6 °C | 1.41 kcal/mol/K | 73 kcal/mol | – | – | – | –
